{
  "source": "paper PMC3777173",
  "key": {"[1]": {"target": "EDAvidin (fusion protein between the extra domain A from fibronectin and streptavidin)", "test": "SDS-PAGE of the sample not boiled against boiled; purified EDAvidin, nondenatured against denatured (boiled), Coomassie blue"}, "[2]": {"target": "biotinylated ovalbumin (UniProt P01012)", "sequence (P01012 whole entry)": "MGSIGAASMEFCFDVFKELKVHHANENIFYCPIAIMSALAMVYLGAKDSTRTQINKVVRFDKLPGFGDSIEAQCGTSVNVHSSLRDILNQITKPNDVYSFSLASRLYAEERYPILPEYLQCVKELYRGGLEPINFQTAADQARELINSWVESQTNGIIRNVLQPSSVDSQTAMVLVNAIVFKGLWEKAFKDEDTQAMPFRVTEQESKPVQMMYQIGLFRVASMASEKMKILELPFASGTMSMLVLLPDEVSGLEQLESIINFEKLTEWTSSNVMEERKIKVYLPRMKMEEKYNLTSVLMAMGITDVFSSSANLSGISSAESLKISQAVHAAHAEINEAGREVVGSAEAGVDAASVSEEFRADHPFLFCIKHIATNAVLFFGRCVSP", "test": "SPR; ProteOn XPR36; OVA-biot covalently immobilised on a GLC chip (sulfo-NHS/EDC); EDAvidin in 2-fold dilutions from 100 nM, then (after regeneration with 2 μM biotin) streptavidin; PBS, 0.005% Tween 20, pH 7.4; 30 μL/min; referenced against nonbiotinylated OVA; Langmuir model"}},
  "data": [
    {"substance": "EDAvidin (fusion protein between the extra domain A from fibronectin and streptavidin)", "values": [
      {"measurement": "stoichiometry N", "setting": "[1]", "result": 4},
      {"measurement": "Kd", "setting": "[2]", "result": 0.023, "unit": "pM"}
    ]}
  ]
}
